Results as given in article PMC7173960 (eLife, 2020).
Like-named read-outs stand apart in the source and are kept apart here.

B17: SBV Gc head domain (SBV-Gc_(head)) (domain or fragment)
chain: INCKNIQSTQLTIEHLSKCMAFYQNKTSSPVVINEIISDASVDEQELIKSLNLNCNVIDRFISESSVIETQVYYEYIKSQLCPLQVHDIFTINSASNIQWKALARSFTLGVCNTNPHKHICRCLESMQMCTSTKTDHAREMSIYYDGHPDRFEHDMKIILNIMRYIVPGLGRVLLDQIKQTKDYQALRHIQGKLSPKSQSNLQLKGFLEFVDFILGANVTIEKTPQTLTTLSLI
notes: not shown: Twin Strep-tag, C-terminal, kept

Experiments:
[1] = biological target: T1, RVFV Gn ectodomain (RVFV-Gn_(ecto)) (Rift Valley fever virus, Clone 13, UniProt A2T080)
[2] = biological target: RVFV-Gn head domain (Rift Valley fever virus, Clone 13, UniProt A2T080); assay: ELISA; settings: both partners purified
[3] = biological target: T1, RVFV Gn ectodomain (RVFV-Gn_(ecto)); assay: ELISA; settings: both partners purified
[4] = biological target: RVFV-Gn subdomain B (Rift valley fever virus (RVFV).); assay: ELISA; settings: both partners purified
[5] = biological target: B17; assay: ELISA; competition ELISA: antigen on Strep-Tactin microplates; competing VHH at 11.11 µg/ml, 1 hr RT, then HRP-conjugated analyte VHH, 1 hr RT; competition as percentage of blocking, above 50% counted as efficient; settings: both partners purified
[6] = biological target: T2, SB10-ELP2ABD-SB10 (Lama glama); assay: ELISA; […] (25 mM Tris-HCl, 2 mM EDTA, 140 mM NaCl, pH 7.6, […]; settings: both partners purified
T2 construct: also called bivalent ELP-based VHH complex; copies: + +

B1: RV152 (VHH)
VHH: QVQLQESGGGLVQAGGSLRLSCAASGRTASSYATGWFRQAPGKEREFVAAIMWSASITHYTDSVKGRFTISRDNAKNTVYLQMNSLKPEDTAVYYCAASKGIIATQAISAYDYWGQGTQVTVSS
binding result [1]: binds

B2: RV145 (VHH)
VHH: QVQLQESGGGLVQAGASLRLSCAASGLTFSSYRMGWFRQAPGKEREFVSAINWSGGNTYYADSLKGRFTISRDNAKNTVYLQMNSLKPEDTAVYYCASQWRLSGVDPLRAHEYEYWGQGTQVTVSS
binding result [1]: binds

B3: RV124 (VHH)
VHH: QVQLQQSGGGLVQPGGSLRLSCAASGIISSIYAMGWYRQAPGKQRELVATAGRVTNYADSVKDRFTISRDNAKNTVYLQMNSLKPEDTAVYYCNARNRLTDDNYWGQGTQVTVSS
binding result [1]: binds

B4: RV108 (VHH)
VHH: QVQLQESGGGLVQAGGSLRLSCVASGRTPSRFFMAWFRQSPGKEREFVARINWGGGNTYYADSVKSRFTISMNNARNTAYLQMNNLKPEDTAVYICAANSDLETNVASLYDYWGQGTQVTVSS
binding result [1]: binds

B5: RV106 (VHH)
VHH: QVQLQESGGGLVQAGGSLRLSCAASGLTFSSYAMGWFRQAPGKEREFVASSSRIEGIIDYADSVKGRFTISRDNAKNTVYLQMDSLKPEDTAVYFCAATRAIIAGRSRSAYDYWGQGTQVTVSS
binding result [1]: binds

B6: RV115 (VHH)
VHH: QVQLQESGGGLVQPGGSLRLSCAVSGSMFSIDAMGWYRQDPGEERELVAAITSGGRTSYADSVKGRFTISRDNANNAVYLQMNNLKPEDTAVYYCNADAVAPFRMTYWGKGTLVTVSS
notes: also called VHH RV115; source: S. cerevisiae, purified from the culture supernatant (IMAC, Ni-NTA)
binding result [2]: binds
binding result [3]: binds

B7: RV150 (VHH)
VHH: QVQLQESGGGLVQAGGSLRLSCAASGRTLSSYAMGWFRQAPGKEREFVGAISWSGPMLYYGDSAKGRFTISRDNAKNTVYLQMNTLKPEDTAVYYCAAANRLTAEGWQQGYNYDYWGQGTQVTVSS
notes: also called VHH RV150; source: S. cerevisiae, purified from the culture supernatant (IMAC, Ni-NTA)
binding result [2]: binds

B8: RV110 (VHH)
VHH: QVQLQESGGGLVQAGGSLRLSCVASGRSFSTSAMGWFRQTPGKEREFVAAISTSGRPTYYADSVKGRGTISRDNAKATVYLEMNSLKPEDTAAYYCAAGMRPRLTGDYYSTDEYDYWGQGTQVTVSS
binding result [1]: binds

B9: RV136 (VHH)
VHH: QVQLQESGGGLVQAGGSLRLSCAASGRTFSRNTMGWFRQAPGKEREFVAAITGGGSTYYADSLKGRFTISRDNAKNTLYLQMNSLKPEDTAIYYCAQYKSSIYFIDYYLRIGDNYDYWGQGTQVTVSS
notes: source: S. cerevisiae, purified from the culture supernatant (IMAC, Ni-NTA)
binding result [2]: binds
binding result [4]: binds
binding result [3]: binds

B10: SB13 (VHH)
VHH: QVQLQESGGGLVQAGDSLRLSCAVSGRTVSSNVMAWFRQAPGKEREAVAFIDSGSGGWPYYSDSVKGRFTISRDNAKNMVYLQMDSLIPEDTAVYYCAADSAVYSRSSRWWLRASSYSYWGQGTQVTVSS
notes: as for B9
binding result [5]: binds

B11: RV139 (VHH)
VHH: QVQLQESGGGLVQAGGSLRLSCAASGPTFSRVTTMGWFRQAPGKDREFVGAISWSDGITYYADSVKGRFTISRDNAKNTMFLQMNSLKPEDTAVYYCGAKIHGGSWFPNYEQYEGMYDFWGQGTQVTVSS
binding result [1]: binds

B12: RV104 (VHH)
VHH: QVQLQESGGGLVQAGGSLRLSCTASGRTNSNYFMTWFRQAPGKEREFVAIINHITGSTEYVDSVKGRFIISRDNAKNTVYLQMDSLKPEDTAVYYCASGRIYSAIPGLYDYWGQGTRVTVSS
notes: also called VHH RV104; source: S. cerevisiae, purified from the culture supernatant (IMAC, Ni-NTA)
binding result [2]: binds
binding result [4]: binds
binding result [3]: binds

B13: RV126 (VHH)
VHH: QVQLQESGGGLVQPGGSLRLSCAASGSIFRFNAMGWYRQAPGNQRDQQRELVAVATNHGTTNYADSVKGRFTISRDNAKNTVALQMNSLKPEDTAVYYCNIRNRLTGDDYWGQGTQVTVSS
binding result [1]: binds

B14: SB14 (VHH)
VHH: QVQLQQSGGGLVQAGGSLRLSCTASGRTFSTYVMGWFRQAPGKEREFVGAISWSGGSTVYADSVKGRFTISRDDAKNTVYLQMNSLKPEDTAVYYCAADDSSWYLVLDAYEYDYWGQGTQVTVSS
notes: as for B9
binding result [5]: binds

B15: RV141 (VHH)
VHH: QVQLQQSGGGLVQAGGSLRLSCAASGRTFSRYRMGWFRQAPGKEREFVAAINWSGGRTYYVDSMEGRFTISRDNAKNTVYLQMNSLKPEDTAVYRCAAQDRLTGNVYYHEEYDYWGQGTQVTVSS
binding result [1]: binds

B16: SB11 (VHH)
VHH: QVQLQESGGGMVQAGGSLRLSCAASGRTFRGYGMGWWRQAPGQERDIVAWIRWSDSTGFYIDSVKGRFTISSDNAKNTVYLQMNSLKVEDTAVYYCAAARGTTGWGAVEDRYWGQGAQVTVSS
notes: as for B9
binding result [5]: binds

B17
binding result [6]: binds

B18: SB12 (VHH)
VHH: QVQLQQSGGGLVQAGGSLRLSCAASGRKISSLTIYGMGWFRQAPGKEREFVAAISQAGGTTSYADSIKDRFTISRDNDKNTAYLQMNNLKPEDTAVYYCAADFLPRIISRRYSDYEYWGQGAQVTVSS
notes: as for B9
binding result [5]: binds

B19: RV134 (VHH)
VHH: QVQLQESGGGLVQAGGSLRLSCAASGLTFAFYTVGWFRQAPGKEREFVGGIIWAGGRTSYADSVKGRFTISRDNAENTVYLQMNSLRPEDTAVYYCAAKNRLTSTNEYDFWGQGTQVTVSS
binding result [1]: binds

B20: SB9 (VHH)
VHH: QVQLQESGGGLVQPGGSLRLSCAASGFTFGSYDMSWVRQAPGKGPEWVSGINSGAISTYYADSVKGRFTISRDNAKNTLYLQMNSLKPEDTAVYYCAKADLDKMMEMVAGRPFLPHDPNFGSWGQGTQVTVSS
notes: as for B9
binding result [5]: binds

B21: SB10 (VHH)
VHH: QVQLQESGGGLVQAGDSLRVSCAASGRTLRNYHVGWFRQAPGKDREFVAAVSWDDSTYYTESVKGRFTISRDNANNTVYLQMNSLKPEDTAVYYCAADRGSVPFYSDFLRGRYEYGGQGTQVTVSS
notes: as for B9
binding result [5]: binds

B22: RV107 (VHH)
VHH: QVQLQESGGGLVQAGGSLRLSCTASGRTFDGVNMAWFRQIPGKEREFVATTLWRGNVPYYTDSVEGRFTISSDNAKNTGYLQMNSLKPEDTAVYYCAARTGSTFLSSALAQSEAVYSIWGQGTQVTVSS
notes: also called VHH RV107; source: S. cerevisiae, purified from the culture supernatant (IMAC, Ni-NTA)
binding result [2]: binds
binding result [3]: binds

B23: RV148 (VHH)
VHH: QVQLQQSGGGLVQAGDSLRVSCAASGRTFSSYVLAWFRQAPGKEREFVAVVGWTGARKEYTDSVKGRFTISRDNAKNTVYLQMNSLKPEDTAVYYCAAGRYYIADGSLYDFWGQGTQVTVSS
notes: as for B9
binding result [2]: binds
binding result [4]: binds
binding result [3]: binds
